Results reported in paper PMC3511906 (Biochemistry, 2012).

Molecular target: the molecule itself
Assay: crystal structure

B1: MIP-2/CXCL2 (murine macrophage inflammatory protein-2) (natural protein, UniProt P10889 28-100, looked up)
chain: AVVASELRCQCLKTLPRVDFKNIQSLSVTPPGPHCAQTEVIATLKGGQKVCLDPEAPLVQKIIQKILNKGKAN
For B1, the “stoichiometry N” value was 2.
